1 protein from publication PMC10003650, “Characterization of a New Glucose-Tolerant GH1 β-Glycosidase from Aspergillus fumigatus with Transglycosylation Activity” (International Journal of Molecular Sciences, 2023) can be followed below.

Substrate in the data set “purified protein”: O=[N+]([O-])c1ccc(O[C@@H]2O[C@H](CO)[C@@H](O)[C@H](O)[C@H]2O)cc1
The data set can be described thus: purified protein. The format is biochemical, Aspergillus fumigatus. The note with it: 50 mM sodium phosphate pH 6.0, 40 °C, 30 min.

Substrate in data set [1]: OCc1ccccc1O[C@@H]1O[C@H](CO)[C@@H](O)[C@H](O)[C@H]1O
The data set can be described thus: DNS method for released glucose, non-linear regression. The data set is classed as biochemical, Aspergillus fumigatus. The note with it: 50 mM sodium phosphate pH 6.0, 40 °C, 30 min. An excerpt:
DNS method for released glucose, non-linear regression on AfBgl1.3

B1: AfBgl1.3 (Aspergillus fumigatus Af293) (protein)
chain: MGSTTTSTLPPDFLWGFATASYQIEGAVDEDGRGPSIWDTFCKIPGKIAGGASGEVACDSYHRTHEDIALLKECGAKAYRFSISWSRVIPLGGRNDPVNEKGLQHYVKFVDDLLAAGITPLVTLFHWDLPDALDKRYGGLLNKEEFVADFANYARVMFNAFGSKVKYWITFNEPWCSSVLGYNVGQFAPGRTSDRTKSPVGDGSREPWIVGHNILVAHGAAVKIYREEFKPRDGGEIGITLNGDWAEPWDPENPADVEACDRKIEFAISWFADPIYHGKYPDSMVKQLGDRLPTWTPEDIALVHGSNDFYGMNHYCANYIKAKTGEPDPNDVAGNLEILLQNKNGEWIGPETQSPWLRPHPIGFRKLLKWLSDRYNQPKIYVTENGTSLKGESDLPVDQIVNDDFRVQYFREYIAAMADAYTLDGVNVRAYMAWSLMDNFEWAEGYETRFGVTFVDYANNQRRIPKKSAKVLREIFDQYIEKA
For orientation: Km means the concentration of substrate that gives half-maximal velocity. The Vmax is the top rate of the reaction or transport when substrate is in excess. Broadly, the kcat is the maximal rate divided by the concentration of active sites. Broadly, the kcat/Km is the second-order rate constant that governs catalysis at low substrate concentration. Regarding B1, in the data set “purified protein”, the Km amounted to 7.6 ± 0.8 mM, the Vmax was 656 µmol/min/mg, the kcat is 596 s⁻¹ and the kcat/Km was 78000 M⁻¹ s⁻¹. Further, in data set [1], the Km is reported as 17.6 ± 1.9 mM, the maximal velocity (Vmax) is 706 µmol/min/mg, the kcat is 622 s⁻¹ and the kcat/Km turned out to be 35000 M⁻¹ s⁻¹.
